According to the DeepSol protein solubility set:

Assay: soluble on expression in E. coli; label from the status in PepcDB or PDB records
With “MNASSAPQQQQQQQQPQQGQAPQQQQQGPPQHQYQQQRPFHGRVQNHMRGSGPFGNSNGYGRYTAPRGDQQHHDSTPLSSTNLYIRGLMPNTNDDLLREMCSKYGNIASTKAIMDKATNNCKGYGFVDFESPQAAAAAVDGLNTEGVQAQMAKLQQQEQDPTNLYIANLPLDFTEQMLETELNKFGMVISTRILRTPDNQSRGVGFARMDSKEKCEVIISALNGGRFDTMSKEGPALLIKQADTGRKSKHSMNNPEMLQRMQYPQVYQSYYGYHPAAVYQQHYDVNSLASQMGGMHVGGGNPQANGGGDMYGAHMYGQNAGGQGGQGVGQGGQGGNQQFYNPNNGRNKKYFQPMNPQ” the “soluble on expression in E. coli” value was “not soluble”. For “MLSQKLFEEISAKISETIAASPAKDIEKNVRAMMASTFSKMDLVTREEFDVQQAVLARTREKLAALESRLARLESQAFPDEAAAKVEEQSELGHS”, the “soluble on expression in E. coli” value was “not soluble”. With “MKRLADVKISTLDLVPVRHDKGPADSLRNSLNLAQHVEKLGYNRFWVAEHHNMDGIASSATSVLLAYLAGGTSTIRVGAGGIMLPNHAPLVVAEQFGTLASLYPGRIDLGLGRAPGSDQMTARALRRERSGSAEDFPDDVTELMEYLGPRTPDQKVIAVPGSDTNVPIWLLGSSLFSAQLAGMRGLPYAFASHFAPRYMHEAIRVYRNHFQPSAVLDKPYVMLGVPLSAADTDEHAEYLATSVYQRILALMRGHSLMQRPPVESMDGLWLPHEREAVASFLGLAMVGGPDKIRAKLDVLLEQTDADELIFTCDMYEHEDRLRSYEILAQVAQG” the “soluble on expression in E. coli” value was “not soluble”. In the case of “MSKAKAPINTDELKQKYGRVYEIRIEGLEYENGEEAEFVFYFTRPKVSDISRFTKELNSKPDMAMKNLTFSCIVPEQEEELRQAAEEFPGLTFNTASRLMEIVGASAATSLKKL”, the “soluble on expression in E. coli” value is reported as “soluble”. With “MAAAAKPNNLSLVVHGPGDLRLENYPIPEPGPNEVLLRMHSVGICGSDVHYWEYGRIGNFIVKKPMVLGHEASGTVEKVGSSVKHLKPGDRVAIEPGAPRENDEFCKMGRYNLSPSIFFCATPPDDGNLCRFYKHNAAFCYKLPDNVTFEEGALIEPLSVGIHACRRGGVTLGHKVLVCGAGPIGMVTLLVAKAMGAAQVVVTDLSATRLSKAKEIGADLVLQISKESPQEIARKVEGQLGCKPEVTIECTGAEASIQAGIYATRSGGTLVLVGLGSEMTTVPLLHAAIREVDIKGVFRYCNTWPVAISMLASKSVNVKPLVTHRFPLEKALEAFETFKKGLGLKIMLKCDPSDQNP” the “soluble on expression in E. coli” value was “not soluble”. For “MGHHHHHHSHMAAGTLYTYPENWRAFKALIAAQYSGAQVRVLSAPPHFHFGQTNRTPEFLRKFPAGKVPAFEGDDGFCVFESNAIAYYVSNEELRGSTPEAAAQVVQWVSFADSDIVPPASTWVFPTLGIMHHNKQATENAKEEVRRILGLLDAYLKTRTFLVGERVTLADITVVCTLLWLYKQVLEPSFRQAFPNTNRWFLTCINQPQFRAVLGEVKLCEKMAQFDAKKFA”, the “soluble on expression in E. coli” value was “not soluble”. For “MAASTFFIPSVNVIGADSLTDAMNMMADYGFTRTLIVTDNMLTKLGMAGDVQKALEERNIFSVIYDGTQPNPTTENVAAGLKLLKENNCDSVISLGGGSPHDCAKGIALVAANGGDIRDYEGVDRSAKPQLPMIAINTTAGTASEMTRFCIITDEARHIKMAIVDKHVTPLLSVNDSSLMIGMPKSLTAATGMDALTHAIEAYVSIAATPITDACALKAVTMIAENLPLAVEDGSNAKAREAMAYAQFLAGMAFNNASLGYVHAMAHQLGGFYNLPHGVCNAVLLPHVQVFNSKVAAARLRDCAAAMGVNVTGKNDAEGAEACINAIRELAKKVDIPAGLRDLNVKEEDFAVLATNALKDACGFTNPIQATHEEIVAIYAAR”, the “soluble on expression in E. coli” value was “not soluble”. With “MGSDKIHHHHHHMSFFDTLSGLSREQLRMALYSTTPAQVETAIEGEQGNLGHLLALLSPAAEEYLEPMAQRAAALTRQRFGHNIGLYLPLYLSNLCANECDYCGFTMSNKLKRKVLSHDELAAEMAVIKPQGFDSILLVSGEHETKVGIEYFADILPLVKAEFSHVAMEVQPLSREHYEILVEKGLDAVMLYQETYDPETYRRHHLRGNKQDYGYRLASPERIAQAGVDKIGLGVLLGLDDWRMDALLMGYHLDYLERRFWRSRYSISLPRLRPCVGGITPKVQLTDKGLVQLICAFRLFNEQLEISLSTRETPSLRDNLLGLGITQMSAGSRTEPGGYVNPAAQLDQFEISDERSAAEVASVLRSRGFTPVWKDWEAGWIGAG” the “soluble on expression in E. coli” value was “not soluble”. With “MGSIISRTIPGQGHGNQYYPGVQWDVRDSAWRYVTILDLPFSLVFDTLLLPIDIHHGPYELEHHHHHH” the “soluble on expression in E. coli” value was “not soluble”. In the case of “MDMNFFKHDAFSATTMMKAIENYEFQPGLISSLNLFEEVETSTTVVGIERRDNTLSLIQTSERGAPLVEGDRDGRNLRFFKTTRIAKSDTVKSEEIQNRREFGTEDQLETAMKYIARKQKKLISEIELTWENMQLGAVQGVVLDADGSVIVDWYKEWEIAPPKPIDFKLNNETTNVADHVDQVIMKMIEASKGAFSDRSRIIGLCGNEFFSKLKNHKTIRETYLNTALAQTLNSAGGVATPSAIGSGSFGSFDFAGVTFINYRSIHNYNVSAKAGTKRAIGIKPDECQFLPANAPGVFQKTFAPGESLDFANTVGKPLYTMLIVDNDRNAWVKPEVYSYPLYICTRPEMLFKAVSGGK”, the “soluble on expression in E. coli” value is reported as “not soluble”. In the case of “MTEEVGQKLLESLSLFKLGDIGYARIECELLTTFLEEQLENNLDSLSIHELSTNLIRNRICCREFIESRPAKKWVFLIFRLARTLFRDKTRIATFHSVNLHSEFVQVFWRNLTYQTKSYRNCKFQTFQFIASRFLRSEHDWNVTVVNCLNVTQKLIDNGENARKFVDCNLEDAVLVLLATRQMTVLQHSLEILGRLSDWSTTCRENLLCISLLRILSCEEQAREQIRIYDGVPTLLGLLSIKNSRLQWHVAWTLAQLAEQHETSLEIAQLGGISLIFAAISNPKPPGKAVGDWVAMLTGLTALLAQLAQASSNQQLMSNANGVYILGKLLAIKKNVTTDETIDSWDLLQCSIFRVLRLMYTFERSRQLLKKVLPTEIFEKFVDVGNYNSVLTDYDQIAKMYDNLIEENIEIMKDWETVNERRQAVGEVGEYELLDQLGAGAFGCVYTVRKKAQSHSENPAKLLALKEIFMTNLNDRESDKSFGDMISEVKIIKQQLRHPNIVRYRRIFVENHRLYIVMDLIQGCSLRDLIITMKEKKGNFEEKKIWAMVVQMMLALRYLHKEKQIVHRDLKPNNIMMTTDERVVITDFGLAKQKGPEYLKSAAGTIIYSCPEIVQNLPYGEKADIWSFGCCIYEMCQLQPVFHSTNMLTLAMQIVEAKYDPLNEMWSDDLRFLITSCLAPDPSARPDILKVSGMCGVRLLEYLDDVARQQASTSDMTASQSSYNIKIDESPSSLNSSTSSYKRPGRSSKTSGSGKLPPINPAPRRNHSMSAGETPRPSSIVCLPRITDKYSVMFPSAPSAIPSRRRVQTCSTEHPARSSSSTELKVSKQSDGLTVSSNVLRQIQDPVLTILNQIHRILVVTDKETISTSMNHQRRLVEMFRKNLLGRENDAVQMKTHLRKLAAESPEEIQMNLGFSDFRPVLVQSHINGYQKDQKVTKITYEQLSACIECLIAENPAAK”, the “soluble on expression in E. coli” value is reported as “soluble”. In the case of “MKKLTIGLIGNPNSGKTTLFNQLTGSRQRVGNWAGVTVERKEGQFSTTDHQVTLVDLPGTYSLTTISSQTSLDEQIACHYILSGDADLLINVVDASNLERNLYLTLQLLELGIPCIVALNMLDIAEKQNIRIEIDALSARLGCPVIPLVSTRGRGIEALKLAIDRYKANENVELVHYAQPLLNEADSLAKVMPSDIPLKQRRWLGLQMLEGDIYSRAYAGEASQHLDAALARLRNEMDDPALHIADARYQCIAAICDVVSNTLTAEPSRFTTAV”, the “soluble on expression in E. coli” value is reported as “soluble”. With “MAHHHHHHMLQLTVEDLTPEAIAALEVQCKAQAEKVNQLEEAMGLLQKELDDARKKYRSTSKAVQWRRLMAEVENDEDIANITVMMQEALADFYKTMQPPDDYDESREGISFCDTDDYADLTSVETKVDEFLLAIRRLVGENCASPEDDGDRRHQRRRALLMLLVLTINAARITDTPTEDAASLMEEQQDNIASLWQTLLHTDSGLVEAEKSEWKDIVSSFLGPPYDTST” the “soluble on expression in E. coli” value was “soluble”. In the case of “MINKTKEKLILIGMPGSGKTTIGKLLAKEYNCSFCDMDDYIIQISQKSIAELFSEGEDIFRNYETQACRELSISDKTVISTGGGVIKKDVNMEILKETGIIIFIDRPIQKILEDININSRPLLKNGKDRLYNLYNERINLYKKFSDIEILNDKSLNNAVYNITNAVSENFKFDFKEK”, the “soluble on expression in E. coli” value is reported as “not soluble”. For “MLDDIPITIQKSKKIKTLSLNITPSLEVILKMPNSCSQTRASAFLKEQEAWLKKTFLSMQEKHSLLRTNLEKYQNKILVFDEVKNANDYTLTELKKILKTYLEQKLPLIAQKMQTSYTHFSIRNNAKVLGSCSYHNRLSFALLLVCAQKEAIDYVIIHELAHTIHKNHSKNFWRCVQIFCPNYRALRERLKQNTIFYAQLLKTLQPLEHHHHHH”, the “soluble on expression in E. coli” value was “soluble”. With “MGSDKIHHHHHHMSIELIDLHPAPADLKQLVQSGFKCQPRQLPAWVLYDAKGSRLFAQICEQPEYGLTRTEIKLLEENAPAIAKAVGDGVIVEFGIGNARKVSPLLNAIRPSTFVALDISQAALKDSLTRLASTYPMVSILGICCDHSSMQALPPHPRLEGVRCIGFFPGSSLGNFTPKEAVAVLRRFRKLLGGGPLLLGLDQPRDPIQLEAAYNDEAGISAAFARNLLHRLNRELEADFRPDQFSYRARWQEEFHRIEMALVSRCSQTIVIDNSTWSFSAGEPLITEYSVKYNPQEAARLAEKAGWRINQRWHDSADSLSLHLLEPSD” the “soluble on expression in E. coli” value was “not soluble”. With “MPGSRTYRKVDPPDVEQLGRSSWTLLHSVAASYPAQPTDQQKGEMKQFLNIFSHIYPCNWCAKDFEKYIRENAPQVESREELGRWMCEAHNKVNKKLRKPKFDCNFWEKRWKDGWDE” the “soluble on expression in E. coli” value was “not soluble”. With “IQVFLSARPPAPEVSKIYDNLILQYSPSKSLQMILRRALGDFENMLADGSFRAAPKSYPIPHTAFEKSIIVQTSRMFPVSLIEAARNHFDPLGLETARAFGHKLATAALACFFAREKATNS” the “soluble on expression in E. coli” value was “soluble”. For “MIPGEYIIKNEFITLNDGRRTLNIKVSNTGDRPVQVGSHYHFFEVNRYLEFDRKSAFGMRLDIPSGTAVRFEPGEEKTVQLVEIGGSREIYGLNDLTCGPLDREDLSNVFKKAKELGFKGVE”, the “soluble on expression in E. coli” value was “not soluble”. For “MGSDKIHHHHHHMLVAERQQKIVEIVNMRSSIRVSELSDIFSVTEETIRRDLEKLEKEHKLSRSHGGAVSIQQKESEIHFSEREITNVIEKKAIAHEAAKYVKSGDRIILDASTTAWYMAKILPDIELTVITNSMKAAIELSNKENISVISTGGILLEKSLSFAGPLAERSLETYHVNKTFLSCKGFDVHNGMSDSNEWQALLKKRMIERSDQTILMADSSKWGNREFSHIASLQDVSRLITDSGLDPASVKALEDKKVKVTAVPLSKRG”, the “soluble on expression in E. coli” value was “not soluble”. In the case of “MESKLEQNVTAMMSSTGASGITVADSEGVRLHSAGKITDMANVGSLMIADAKNMFPKGTRNKKNSYPIVTLHSSDGSKTTKFLFENLKILNVLFKNQQISYYLLQKPEISGFSYKKSVFFSNFLSENLKIF”, the “soluble on expression in E. coli” value is reported as “soluble”. In the case of “MGSDKIHHHHHHMLNMNFDEQVFINTQEQPWVASPKAGVWRKPLAREDAERGHATSLVKFDPGASFTEHDHPLGEEILVLSGTFSDHTGDYHAGSYFRNPEGFRHAPFSKDGCILLVKLHQFQSGDNEHVVIDTANKSWSPGMGNLMVMPLHSFEGESTALVKWPKDERFQPHKHFGGEEIFVISGEFIDEHGRYPEGSWIRSPHLSEHFPYVEQETIILVKVGHL”, the “soluble on expression in E. coli” value is reported as “not soluble”.
